Laboratory results: publication PMC8105298

Molecular target: p62 (UniProt Q13501)
Assay: co-IP of stathmin-GFP with Flag-p62
Conditions: reference: wild type stathmin-GFP; sites S63

stathmin (from UniProt P16949) S63A stathmin-GFP
binding against the reference: weaker
